Data reported in the nanobody polyreactivity screen of Harvey et al. (2022).

Test: yeast display, Sf9 membrane polyspecificity reagent, FACS + sequencing; frameworks hold sequencing errors
In short: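 A synthetic nanobody library was expressed on Saccharomyces cerevisiae BJ5465 by galactose induction for 36–48 hours. The library was stained for 1 hour at 4 °C with 10% biotinylated, detergent-solubilized Sf9 membrane reagent and enriched with streptavidin microbeads before FACS. Low and high (top ~1%) gates were set on anti-HA fluorescence for expression and streptavidin fluorescence for reagent binding, and each polyreactivity label reflects the gate of origin.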
For “QVQLVESGGGLVQAGGSLRLSCAASGRIFGRYAMGWYIQAPGKERELVAAISRSGGITYYADSVKGRFTISRDNAKNTVYLQMNSLKPEDTAVYYCAAYRAGNSYYPRLNYWGQGTQVTVSS”, the “polyreactivity (PSR sort gate)” value was “high polyreactivity”. In the case of “QVQLVESGGGLVQAGGSLRLSCAASGRIFGRYAMGWYRQAPGKEREFVAAISWRGGTTYYADSVKGRFTISRDNAKNTVYLQMNSLKPEDTAVYYCNARYQTGGYGYWGQGTQVTVSS”, the “polyreactivity (PSR sort gate)” value is reported as “high polyreactivity”. With “QVQLVESGGGLVQAGGSLRLSCAASGRIFGRYAMGWYRQAPGKERELVAAISSRGSRTYYADSVKGRFTISRDNAKNTVYLQMNSLKPEDTAVYYCAATWLSNPSDYDYWGPGTQVTVSS” the “polyreactivity (PSR sort gate)” value was “high polyreactivity”. With “QVQLVESGGGLVQAGGSLRLSCAASGRIFGRYAMGWYRQAPGKEREVVATITRNGGGTYADSVKGRFTISRDNAKNTVYLQMNSLKPEDTAVYYCAVDTAAAWERRGFDSWGQGTQVTVSS” the “polyreactivity (PSR sort gate)” value was “low polyreactivity”. In the case of “QVQLVESGGGLVQAGGSLRLSCAASGRIFGRYTMGWYRQAPGKERELVAAISARGGSTYYADSVKGRFTISRDNAKNTVYLQMNSLKPEDTAVYYCDAEYVVWYLDRFNYWGQGTQVTVSS”, the “polyreactivity (PSR sort gate)” value is reported as “high polyreactivity”. With “QVQLVESGGGLVQAGGSLRLSCAASGRIFGRYVMGWYRQAPGKERELVARIRRNGGSTYYADSVKGRFTISRDNAKNTVYLQMNSLKPDDTAVYDCAAESYDTWRRYESWGQGTQVTVSS” the “polyreactivity (PSR sort gate)” value was “high polyreactivity”. For “QVQLVESGGGLVQAGGSLRLSCAASGRIFGSYALGWYRQAPGKERELVAAISSGGSTSYADSVKGRFTISRDNAKNTVYLQMNSLKPEDTAVDYCNRLRLFRGRGDYWGQGTQVTVSS”, the “polyreactivity (PSR sort gate)” value was “high polyreactivity”. With “QVQLVESGGGLVQAGGSLRLSCAASGRIFGSYAMGWYRQAPGKERELVAVITKRGDSTYYADSVKGRFTISRDNAKNTVYLQMNSLKPEDTAVYYCNAGRVYYSNGYDYWGQGSQVTVSS” the “polyreactivity (PSR sort gate)” value was “low polyreactivity”. With “QVQLVESGGGLVQAGGSLRLSCAASGRIFGSYTMGWYRQAPGKERELVAGISRRGGSTYYADSVKGRFTISRDNAKNTVYLQMNGLKPEDTAVYYCAAVSSVFSVRYDYWGQGTQVTVSS” the “polyreactivity (PSR sort gate)” value was “high polyreactivity”. For “QVQLVESGGGLVQAGGSLRLSCAASGRIFGSYVMGWYRQAPGKERELVAAISYSGGRTYYADSVKGRFTISRDNAKNTVYLQMNSLKPEDTAVYYCAKESSGSRYQYYYWGQGTQVTVSS”, the “polyreactivity (PSR sort gate)” value was “high polyreactivity”. With “QVQLVESGGGLVQAGGSLRLSCAASGRIFGTNAMGWYRQAPGKERELVADITSGGSTNYADSVKGRFTISRDNAKNTVYLQMNSLKPEDTAVYDCAADVIGDLRWYRDEYWGQGTQVTVSS” the “polyreactivity (PSR sort gate)” value was “low polyreactivity”. In the case of “QVQLVESGGGLVQAGGSLRLSCAASGRIFGTNARGWYRQAPGKERELVADITSGGSTNYADSVKGRFTISRDNAKNTVYLQMNSLKPEDTAVYYCAADVIGDLRWYRDEYWGQGTQVTVSS”, the “polyreactivity (PSR sort gate)” value is reported as “low polyreactivity”. In the case of “QVQLVESGGGLVQAGGSLRLSCAASGRIFGVNAMGWYRPSPGKERELVADISSGGSTNYADSVKGRFTISRDNAKNTVYLQMNSLKPEDTAVYYCNARFRFRYKFPSRNSWGQGTQVTVSS”, the “polyreactivity (PSR sort gate)” value is reported as “high polyreactivity”. With “QVQLVESGGGLVQAGGSLRLSCAASGRIFGVNAMGWYRQAPGKERELVAAITRRGGSTYADSVKGRFTISRDNAKNTVYLQMNSLKPEDTAVYYCNAESYYGIFRYKYDYWGQGTQVTVSS” the “polyreactivity (PSR sort gate)” value was “high polyreactivity”. For “QVQLVESGGGLVQAGGSLRLSCAASGRIFGVYAMGWSRQAPGKERELVAAITARGGSTYYADSVKGRFTISRDNAKNTVYLQMNSLKPEDTAVYYCNAARSTSRPYDYWGQGTQVTVSS”, the “polyreactivity (PSR sort gate)” value was “high polyreactivity”. With “QVQLVESGGGLVQAGGSLRLSCAASGRIFGVYAMGWYRPAPGKERELVAGINGGDSTYYADSVKGRFTISRDNAKNTVYLQMNSLKPEDTAVYYCAAEADESGSNYDYWGQGTQVTVSS” the “polyreactivity (PSR sort gate)” value was “low polyreactivity”. With “QVQLVESGGGLVQAGGSLRLSCAASGRIFGVYAMGWYRQAPGKDRELVAAITSSGGRTYYADSVKGRFTISRDNAKNTVYLQMNSLKPEDTGVYYCAALGWSRRGKFNYWGQGTQVTVSS” the “polyreactivity (PSR sort gate)” value was “high polyreactivity”. In the case of “QVQLVESGGGLVQAGGSLRLSCAASGRIFGVYAMGWYRQAPGKERELVAAISRGGSTKYADSVKGRFTISRDNAKNTVYLQMNSLKPEDTAVYYCAARRWGRVYTTYTGGYWGQGTQVTVSS”, the “polyreactivity (PSR sort gate)” value is reported as “high polyreactivity”. In the case of “QVQLVESGGGLVQAGGSLRLSCAASGRIFGVYAMGWYRQAPGKERELVAAITFNAGSTYYADSVKGRFTISRDNAKNTVYLQMNSLIPEDTAVYYCNAYTESWYPIYFFGWSYTDVDYWGQGTQVTVSS”, the “polyreactivity (PSR sort gate)” value is reported as “low polyreactivity”. In the case of “QVQLVESGGGLVQAGGSLRLSCAASGRIFGWYTMGWYRQAPGKERELVAVISSGGSTNYADSVKGRFTISRDNAKNTVYLQMNSLKPEDTAVYYCAAGGQGGDFGDDYWGQGTQVTVSS”, the “polyreactivity (PSR sort gate)” value is reported as “high polyreactivity”. In the case of “QVQLVESGGGLVQAGGSLRLSCAASGRIFGYNAMGWYREAPGKERELVAAITGSGGSTYYADSVKGRFTISRDNAKNTVYLQMNSLKPEDTAVYYFATAYAVYHVEYGYWGQGTQVTVSS”, the “polyreactivity (PSR sort gate)” value is reported as “low polyreactivity”. With “QVQLVESGGGLVQAGGSLRLSCAASGRIFGYNAMGWYRPAPGKEREVVAAISWNGGSTYYADSVKGRFTISRDNAKNTVYLQMNSLKPEDTAVYYCNADPSDRRYPHTWTKMGYWGQGTQVTVSS” the “polyreactivity (PSR sort gate)” value was “low polyreactivity”. For “QVQLVESGGGLVQAGGSLRLSCAASGRIFGYNAMGWYRQAPGKERELVAAITNGGSTNYADSVKGRFTISRDNAKNTVYLQMNSLKPEDTAVYYCVAYVGSTYSAPEYYWGQGTQVTVSS”, the “polyreactivity (PSR sort gate)” value was “low polyreactivity”. In the case of “QVQLVESGGGLVQAGGSLRLSCAASGRIFGYNDMGLYRQAPGKERELVAAINWTGGSTYYADSVKGRFTISRDNAKNTVYLQMNSLKPEDTAVYYCNADARTKWVQTHTDFITDYDYWGQGTQVTVSS”, the “polyreactivity (PSR sort gate)” value is reported as “low polyreactivity”. For “QVQLVESGGGLVQAGGSLRLSCAASGRIFGYNGMGWYRQAPGKERELVAAITSGGRTYYADSVKGRFTISRDNAKNTVYLQMNSLKPEDTAVYYCAAYFYQRGYGYVGPYGYWGQGTQVTVSS”, the “polyreactivity (PSR sort gate)” value was “high polyreactivity”. With “QVQLVESGGGLVQAGGSLRLSCAASGRIFGYNVMGWYRQAPGKERELVAAISYSGGSTYYADSVKGRFTISRDNAKNTVYLQMNSLKPEDTAVYYCNAGYRGSSKYNYWGQGTQVTVSS” the “polyreactivity (PSR sort gate)” value was “high polyreactivity”. In the case of “QVQLVESGGGLVQAGGSLRLSCAASGRIFGYTMGWYRQAPGKERELVAAISKSGGSTYYADSVKGRFTISRDNAMNTVYLQMNSLKPEDTAVYYCNKPQRILYDYWGQGTQVTVSS”, the “polyreactivity (PSR sort gate)” value is reported as “high polyreactivity”. With “QVQLVESGGGLVQAGGSLRLSCAASGRIFGYYAMGWSRQAPGKEREFVAAINWRGSSTTYADSVKGRFTISRDNAKNTVYLQMNSLKPEDTAVYYCKRVFGGGQWVYGYWGQGTQVTVSS” the “polyreactivity (PSR sort gate)” value was “high polyreactivity”. In the case of “QVQLVESGGGLVQAGGSLRLSCAASGRIFGYYAMGWYRQAPGKERELVAAIRWSSGRTYYADSVKGRFTISRDNAKNTVYLQMNSLKPEDTAVYYCAKDGGLRKFDYWGQGTQVTVSS”, the “polyreactivity (PSR sort gate)” value is reported as “high polyreactivity”. In the case of “QVQLVESGGGLVQAGGSLRLSCAASGRIFGYYAMGWYRQAPGKERELVAAISRSGSSTYYADSVKGRFTISRDNAKNTVYLQMNSLKPEDTAVYYCNSEKYYRAYLLPFNYWGQGTQVTVSS”, the “polyreactivity (PSR sort gate)” value is reported as “high polyreactivity”. For “QVQLVESGGGLVQAGGSLRLSCAASGRIFGYYAMGWYRQAPGKERELVAAISYSGGRTYYADSVKGRFTISRDNAKNTVYLQMNSLKPEDTAVYYCNARSRSYKWYTRTGYGYDYWGQGTQVTVSS”, the “polyreactivity (PSR sort gate)” value was “high polyreactivity”.
